Test results reported in PMC9961625, “Anti-Trypanosoma cruzi Properties of Sesquiterpene Lactones Isolated from Stevia spp.: In Vitro and In Silico Studies” (Pharmaceutics, 2023).

System: Cc1cc(=O)oc2cc(NC(=O)[C@@H]3CCCN3C(=O)CNC(=O)OCc3ccccc3)ccc12
Assay: purified protein

prolyl oligopeptidase of 80 kDa (Tc80) (Trypanosoma cruzi)
Km: 5.9 µM
